Measured values as given in patent US20230183381A1 (VIRTUOSO BINCO, published 2023).
Positions count from the first letter of the chain named.

T1: recombinant BCMA (Sino Biological 10620-H03H-B) (human, UniProt Q02223 1-54)
T1 construct: Bought protein; also called human BCMA
T1 sequence (looked up): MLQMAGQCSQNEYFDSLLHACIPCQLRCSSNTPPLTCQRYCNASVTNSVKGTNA

B1: humanized h18E4-19 antibody (antibody, V domains shown)
VH: EVQLLESGGGLVQPGGSLRLSCAASGFSFNNYWIIWIRQAPGKGLEWVAAIYSPSGDIKYYADWAKGRFTVSKDNSKNTVYLQMNSLRAEDTAVYYCARELSGSSYEGYFESWGQGTLVTVSS
VL: DIQLTQSPSTLSASVGDRVTITCRSSQSVYGHNWLAWYQQKPGKAPKLLMYRASNLASGVPSRFSGSGSGTEFTLTISSVQPDDFATYYCQGYYSGGSYAFGGGTKVEIK
notes: the control is hIgG1; also called hu18E4-19; Anti-CD38
B2: Anti-CD38 HC_S97A (antibody, V domains shown)
VH: B1 VH with S102A
VL: B1 VL
notes: Alanine variant of h18E4-19 with the parent VL
B3: Anti-CD38 LC_S93A (antibody, V domains shown)
VH: B1 VH
VL: B1 VL with S95A
notes: Alanine variant of h18E4-19 with the parent VH
B4: Anti-CD38 LC_Y96A (antibody, V domains shown)
VH: B1 VH
VL: B1 VL with Y99A
notes: as for B3
B5: Anti-CD38 HC_S100A (antibody, V domains shown)
VH: B1 VH with S105A
VL: B1 VL
notes: as for B2
B6: Anti-CD38 HC_Y100aA (antibody, V domains shown)
VH: B1 VH with Y106A
VL: B1 VL
notes: as for B2
B7: Anti-CD38 LC_Q89A (antibody, V domains shown)
VH: B1 VH
VL: B1 VL with Q91A
notes: Alanine variant of h18E4-19 with the parent VH; also called Anti-CD38med
B8: Anti-CD38 HC_F100eA (antibody, V domains shown)
VH: B1 VH with F110A
VL: B1 VL
notes: as for B2
B9: Anti-CD38 LC_Y92A (antibody, V domains shown)
VH: B1 VH
VL: B1 VL with Y94A
notes: as for B3
B10: Anti-CD38 LC_G94A (antibody, V domains shown)
VH: B1 VH
VL: B1 VL with G96A
notes: Alanine variant of h18E4-19 with the parent VH; also called Anti-CD38low
B11: Anti-CD38 HC_E95A (antibody, V domains shown)
VH: B1 VH with E100A
VL: B1 VL
notes: as for B2
B12: Anti-CD38 HC_Y100dA (antibody, V domains shown)
VH: B1 VH with Y109A
VL: B1 VL
notes: as for B2
B13: Anti-CD38 LC_Y91A (antibody, V domains shown)
VH: B1 VH
VL: B1 VL with Y93A
notes: as for B3
B14: Anti-CD38 HC_L96A (antibody, V domains shown)
VH: B1 VH with L101A
VL: B1 VL
notes: as for B2
B15: Anti-CD38 LC_S95aA (antibody, V domains shown)
VH: B1 VH
VL: B1 VL with S98A
notes: as for B3
B16: Anti-CD38 HC_E100bA (antibody, V domains shown)
VH: B1 VH with E107A
VL: B1 VL
notes: as for B2
B17: Anti-CD38 LC_G90A (antibody, V domains shown)
VH: B1 VH
VL: B1 VL with G92A
notes: as for B3
B18: Anti-CD38 LC_G95A (antibody, V domains shown)
VH: B1 VH
VL: B1 VL with G97A
notes: as for B3
B19: Anti-CD38 HC_E101A (antibody, V domains shown)
VH: B1 VH with E111A
VL: B1 VL
notes: as for B2
B20: Anti-CD38 HC_S102A (antibody, V domains shown)
VH: B1 VH with S112A
VL: B1 VL
notes: as for B2
B21: Anti-CD38 HC_S99A (antibody, V domains shown)
VH: B1 VH with S104A
VL: B1 VL
notes: as for B2
B22: Anti-CD38 HC_G100cA (antibody, V domains shown)
VH: B1 VH with G108A
VL: B1 VL
notes: as for B2
B23: Anti-CD38 HC_G98A (antibody, V domains shown)
VH: B1 VH with G103A
VL: B1 VL
notes: as for B2
B24: Anti-BCMA.BMK2_ADCC.high (antibody, human IgG1, kappa)
heavy: EVQLQQSGAVLARPGASVKMSCKGSGYTFTNYWMHWVKQRPGQGLEWIGATYRGHSDTYYNQKFKGKAKLTAVTSTSTAYMELSSLTNEDSAVYYCTRGAIYNGYDVLDNWGQGTLVTVSSASTKGPSVFPLAPSSKSTSGGTAALGCLVKDYFPEPVTVSWNSGALTSGVHTFPAVLQSSGLYSLSSVVTVPSSSLGTQTYICNVNHKPSNTKVDKKVEPKSCDKTHTCPPCPAPELLGGPDVFLFPPKPKDTLMISRTPEVTCVVVDVSHEDPEVKFNWYVDGVEVHNAKTKPREEQYNSTYRVVSVLTVLHQDWLNGKEYKCKVSNKALPLPEEKTISKAKGQPREPQVYTLPPSRDELTKNQVSLTCLVKGFYPSDIAVEWESNGQPENNYKTTPPVLDSDGSFFLYSKLTVDKSRWQQGNVFSCSVMHEALHNHYTQKSLSLSPGK
light: DIQLTQTTSSLSASLGDRVTISCSASQDISNYLNWYQQKPDGTVELVIYYTSNLHSGVPSRFSGSGSGTDYSLTIGYLEPEDVATYYCQQYRKLPWTFGGGSKLEIKRRTVAAPSVFIFPPSDEQLKSGTASVVCLLNNFYPREAKVQWKVDNALQSGNSQESVTEQDSKDSTYSLSSTLTLSKADYEKHKVYACEVTHQGLSSPVTKSFNRGEC
notes: Monoclonal IgG1 with ADCC-high Fc mutations; also called ADCC-high variant of Anti-BCMA BMK2 antibody
B25: Anti-BCMA (antibody, human IgG1, kappa)
heavy: not shown
light: DIQLTQTTSSLSASLGDRVTISCSASQDISNYLNWYQQKPDGTVELVIYYTSNLHSGVPSRFSGSGSGTDYSLTIGYLEPEDVATYYCQQYRKLPWTFGGGSKLEIKRTVAAPSVFIFPPSDEQLKSGTASVVCLLNNFYPREAKVQWKVDNALQSGNSQESVTEQDSKDSTYSLSSTLTLSKADYEKHKVYACEVTHQGLSSPVTKSFNRGEC
notes: also called Anti-BCMA BMK2 antibody; Anti-BCMA.BMK2

The binders below were run against T2, human CD38 extracellular domain (hCD38, recombinant, with AviTag) (human, UniProt P28907 43-300) (assay: ELISA on human CD38 ECD, EC50 class).
T2 construct: also called recombinant CD38; huCD38
B1 showed an EC50 of 0.02 to 0.1 nM.
With B2 the EC50 was 0.02 to 0.1 nM.
Binder B3 has an EC50 of 0.1 to 0.5 nM.
B4 showed an EC50 of 0.1 to 0.5 nM.
B5 showed an EC50 of 0.02 to 0.1 nM.
With B6 the EC50 was 0.02 to 0.1 nM.
Work on B7 yielded an EC50 of 0.02 to 0.1 nM.
In the case of B8, the EC50 is reported as 0.02 to 0.1 nM.
B9 was tested, and the EC50 was 0.02 to 0.1 nM.
Binder B10 has an EC50 of over 0.5 nM.
For B11, the EC50 was over 0.5 nM.
B12 was tested, and the EC50 was over 0.5 nM.
B13 gave an EC50 of over 0.5 nM.
B14 was tested, and the EC50 was 0.02 to 0.1 nM.
For B15, the EC50 was 0.02 to 0.1 nM.
For B16, the EC50 was over 0.5 nM.
For B17, the EC50 was 0.1 to 0.5 nM.
Binder B18 has an EC50 of 0.02 to 0.1 nM.
B19 was tested, and the EC50 was 0.02 to 0.1 nM.
For B20, the EC50 was 0.02 to 0.1 nM.
B21 was tested, and the EC50 was 0.02 to 0.1 nM.
For B22, the EC50 was 0.1 to 0.5 nM.
B23 was tested, and the EC50 was 0.02 to 0.1 nM.

The binders below were run against T1, recombinant BCMA (Sino Biological …) (assay: ELISA, plate coated with recombinant BCMA).
Experimental: After washing 3 times, the plate was blocked with 300 μl 1% BSA in PBST at 37° C. for 1 hour. Serially diluted antibodies were added and incubated at 37° C. for 1 hour. The plate was then washed 4 times with PBST and incubated with 1:5000 diluted 2nd antibody (Sigma, Cat #A0293) at 37° C. for 1 hour. The plate was washed again 4 times with PBST, incubated with TMB substrate for 15 min at room temperature, terminated with IN HCl, and then read at 450 nm.
B24 gave an EC50 of about 0.02 nM.
With B25 the EC50 was about 0.02 nM.
